From publication PMC9842639, “Insights into pyrrolysine function from structures of a trimethylamine methyltransferase and its corrinoid protein complex” (Communications Biology, 2023)
Changes are numbered by the printed parent chain. Names may count otherwise.

B1: MttB (Methanosarcina barkeri; C-TERMINAL/CHANGE/GGHHHHHH/IS/NO/TAG) (protein)
chain: MAKNNAVAGFNALNGVELNLFTTDELKAIHYATMEVLMDPGIQVSDPEARQIFKENGCEVNEKTNVVKIPEYLVRKALQLAPSRFVLWGRDKKFNTVQECGGKVHWTCFGTGVKVCKYQDGKYVTVDSVEKDIADIAKLCDWAENIDYFSLPVSARDIAGQGAQDVHETLTPLANTAKHFHHIDPVGENVEYYRDIVKAYYGGDEEEARKKPIFSMLLCPTSPLELSVNACQVIIKGARFGIPVNVLSMAMSGGSSPVYLAGTLVTHNAEVLSGIVLAQLTVPGAKVWYGSSTTTFDLKKGTAPVGSPELGLISAAVAKLAQFYGLPSYVAGSOSDAKVPDDQAGHEKTMTTLLPALAGANTIYGAGMLELGMTFSMEQLVIDNDIFSMVKKAMQGIPVSEETLAVESIQKVGIGNNFLALKQTRQLVDYPSNPMLLDRHMFGDWAAAGSKDLATVAHEKVEDVLKNHQVTPIDADIFKDMQAIVDKADKAFRGM
notes: full length with C-terminal GGHHHHHH tag, contains pyrrolysine at 334 (amber codon); expressed in Methanosarcina acetivorans C2A; D3 homohexamer (trimer of dimers)
B2: MttB (Methanosarcina barkeri; Y364F) (protein)
chain: B1 chain with Y364F
notes: as for B1
B3: Methanosarcina barkeri trimethylamine methyltransferase MttB (enzyme, Methanosarcina barkeri MS, UniProt O93658 1-495, looked up)
chain: B1 chain
modifications: pyrrolysine at 334 (Pyl334)
notes: Trimethylamine methyltransferase MttB, product of the mttB1 gene amplified from M. barkeri MS genomic DNA; the in-frame amber codon is read as pyrrolysine (Pyl334); residues 2-495 are described in the structure; D3-symmetric homo-hexamer (trimer of dimers) in the crystals; No step that removes the tag is described; The PDB ids are printed in two ways (7XCL/7XCM in the methods, 7LCL/7LCM in the …)
B4: Methanosarcina barkeri trimethylamine corrinoid protein MttC (natural protein, UniProt O93659 1-217, looked up)
chain: MANKEEIIAKAKEAITDFDDELAEEVANEALAAGIDPVELIEKGFTAGMEEVGEKFGQGELFLPHVLAAAEAMNSGIKVITPEMEKRKSQTKSLGTVAIGTIEGDIHSIGKDIVASMLNIAGFKVVDLGRDVPINTFVEKVKELKPQVVASSALMTTTMVNQIQIEEQLKEAGVRDQVKTMVGGAPVTQDWADKIGADIYGESANDAVAKVKAALNV
notes: Trimethylamine corrinoid protein MttC of M. barkeri; mttC gene cloned by a strategy similar to that for mttB1; helical cap domain residues 2-84, connecting loop 85-95, core domain 96-216; No step that removes the tag is described; also called MttC-His6; cognate corrinoid protein; source: Methanosarcina acetivorans C2A transformed with plasmid pTC311, purified (HiTrap HP column, Mono-Q HR 10/10)

Legend:
MttB = molecular target: T1, MttB (Methanosarcina barkeri, UniProt O93658); assay: X-ray crystal structure, […] Å; format: binding; conditions: covalent; adduct on imine carbon of Pyl334; crystal soaked with saturated sodium dithionite, pH 4.5
T1 construct: full length with C-terminal GGHHHHHH tag, contains pyrrolysine at 334 (amber codon); expressed in Methanosarcina acetivorans C2A; D3 homohexamer (trimer of dimers)

purified protein = substrate: CN(C)C; assay: purified protein; format: biochemical, Methanosarcina barkeri; conditions: 30 µM Co(I)-MttC as methyl acceptor, RamA, 2 mM Ti(III)-citrate, 2.5 mM ATP, 2.5 mM MgCl2, phosphate pH 7.2, 37 °C, anaerobic
[1] = molecular target: the molecule itself; assay: crystal structure; MttB alone; vapor diffusion at 10 °C; 8 mg/mL MttB in 20 mM potassium phosphate pH 7.4, 500 mM NaCl, 240 mM imidazole, 20% glycerol; reservoir 4% MPD, 0.1 M citric acid pH 4.5; 2.5 Å
[2] = molecular target: B3; assay: crystal structure; MttB-MttC complex; hanging drops at 10 °C of MttB (3 mg/mL) and MttC (10 mg/mL) mixed with 18% PEG8000, 0.1 M citric acid pH 5, 1 M LiCl; crystals soaked with 12.5 mM N,N-dimethyl-hydroxylamine; 2.7 Å, space group P21; conditions: both partners purified

With O=S(O)O [sulfite] the “X-ray crystal structure, 3.2 Å” value (MttB) was “addition of sulfite to the pyrrolysine imine carbon of MttB was observed”.

Molecule B1 has a Km (purified protein) of 49 ± 6 µM and a kcat (purified protein) of 48 ± 2 turnovers per min.

For B2, the Km (purified protein) was 75 ± 11 µM and the kcat (purified protein) was 1.7 ± 0.1 turnovers per min.

In the case of B3, the “stoichiometry N” value [1] is reported as 6.

B4: binds [2].
